The results in this text go back to the DeepSol protein solubility set.

The nature of the data set: soluble on expression in E. coli; label from the status in PepcDB or PDB records.
For “QRWSLPSLDPFGDRETAIETVGETVETSIDAVDTDSLAIAFSGGVDSALLAARLDAPLYVAGFPDSHDIEAARSAAELLGTEVRVVELTHDAIERAVPEIARATARTNAMDVQIALPLYLVAERVAGDGFDRLALGQGADELFGGYAKVAKAPEDPRVEADTVRGAQREVIASLPDQLERDVLALRAAGVEPVTPLLHDRVIGAALRLDGDLLVDGETRKVALRAAARESLPDEIADRDKKAAQYGSLAARELDRLARQAGYKRRMDDHVTQYVESLVE”, the “soluble on expression in E. coli” value is “not soluble”.
The value for “QSQGVLSSFPAPQAVQDNPAMPTSSGSEGNVKLCSLEEAQRIWKQKSAEIYPIMDKSSRTRLALIICNEEFDSIPRRTGAEVDITGMTMLLQNLGYSVDVKKNLTASDMTTELEAFAHRPEHKTSDSTFLVFMSHGIREGICGKKHSEQVPDILQLNAIFNMLNTKNCPSLKDKPKVIIIQAARGDSPGVVWFKDSVGVSGNLSLPTTEEFEDDAIKKAHIEKDFIAFCSSTPDNVSWRHPTMGSVFIGRLIEHMQEYACSCDVEEIFRKVRFSFEQPDGRAQMPTTERVTLTRCFYLFPGH” was “soluble”; that for “QSSKSPLTAALGLDISGTPIITDLQKMPHGLIAGATGSGKSVCINSLLVSLLYKATPDQLKLLLIDPKMVELAPYNRIPHLVSPVITDAKAATVALKWAVEEMERRYQLFSHTGVRNMEKYNEYASHPDHTGEKLPYILIVIDELADLMMVAPNDVEESISRIAQKARACGIHMIVATQRPSV” was “not soluble”; that for “QSSSSAIEATIEGNSQTTISQTSHFIQSYIKKLETTSTGLTQQTDVLAYAENPSQDKVEGIRDLFLTILKSDKDLKTVVLVTKSGQVISTDDSVQMKTSSDMMAEDWYQKAIHQGAMPVLTPARKSDSQWVISVTQELVDAKGANLGVLRLDISYETLEAYLNQLQLGQQGFAFIINENHEFVYHPQHTVYSSSSKMEAMKPYIDTGQGYTPGHKSYVSQEKIAGTDWTVLGVSSLEKLDQVRSQL” was “not soluble”.
The same measure for “QTIRSASDIRDVFINAGIKGEEYDAAWNSFVVKSLVAQQEKAAADVQLRGVPAMFVNGKYQLNPQGMDTSNMDVFVQQYADTVKYLSEKKGGGTGAQYEDGKQYTTLEKPVAGAPQVLEFFSFFCPHCYQFEEVLHISDNVKKKLPEGVKMTKYHVNFMGGDLGKDLTQAWAVAMALGVEDKVTVPLFEGVQKTLIK”: “soluble”; for “QVIEVLNKQVADWSVLFTKLHNFHWYVKGPQFFTLHEKFEELYTESATHIDEIAERILAIGGKPVATMKEYLEISSIQEAAYGETAEGMVEAIMKDYEMMLVELKKGMEIAQNSDDEMTSDLLLGIYTELEKHAWMLRAFLN”: “soluble”.
The same measure for “QVPILHRDADFLLRALQPDDFVRTSRYENANREHLAPWEPLRDPGYFSVDNARARTLLQVASMDEGEALLLLLLDPDDGEVLGRCSYTNIVRGVFQACHLGFSLAAAAQGRGLMARALRVANRYCFEQLGLHRIMASHLPRNARSERLLESLGFEKEGYARAYLKIAGVWEDHVLRALVDAPR”: “not soluble”; for “QVQLVESGGGLVQPGGSLRLSCAASGFTFNSYWINWVRQAPGKGLEWVSGIAYDSSNTLYADSVKGRFTISRDNSKNTLYLQMNSLRAEDTAVYYCARGLGAFHWDMQPDYWGQGTLVTVSSASTKGPSVFPLAPSSKSTSGGTAALGCLVKDYFPEPVTVSWNSGALTSGVHTFPAVLQSSGLYSLSSVVTVPSSSLGTQTYICNVNHKPSNTKVDKKVEPKSCDKTH”: “soluble”; for “QVQLVQSGPELKKPGETVKISCKASGYMFTNYGMNWVKQAPGKALKWMGWINPYTGESTFADDFKGRFAFFLETSATTAYLQINNLKNEDTATYFCARGTTIVWAMDYWGQGTSVTVSSASTKGPSVFPLAPSSKSTSGGTAALGCLVKDYFPEPVTVSWNSGALTSGVHTFPAVLQSSGLYSLSSVVTVPSSSLGTQTYICNVNHKPSNTKVDKKVEPLSCDKTHT”: “soluble”.
Turning to “QYQDYASFFRNNKSVTHLIVPSNFIGAGVSKYKDWKRSNIPYTQLDMAVVQNRPAGSLRRFVVLVVGETTRAANWGLNGYSRQTTPLLAARGDEIVNFPQVRSCGTSTAHSLPCMFSTFDRTDYDEIKAEHQDNLLDIVQRAGVEVTWLENDSGCKGVCGKVPNTDVTSLNLPEYCRNGECLDNILLTKFDEVLNKNDKDAVLILHTIGSHGPTYYERYTEAERKFTPTCDTNEINKCTRATLVNTYDNTVLYVDQFIDKVIRKLENRDDLESVVHYVSDHGESLGENG”, the “soluble on expression in E. coli” value is reported as “not soluble”.
